Target: UDP-galactose-4-epimerase from Aspergillus nidulans (Aspergillus nidulans)
Assay: crystal structure; microbatch at 277 K, 20% (w/v) PEG3350, 0.1 M Bis-Tris propane pH 7.5, 0.2 M sodium fluoride, grown with 10 mM UDP-glucose; space group C2, three monomers per asymmetric unit (one homodimer and one monomer that forms a dimer through symmetry); 2.8 Å

Q: For “UDP-galactose-4-epimerase from Aspergillus nidulans (enzyme)”, which stoichiometry N is on record?
A: Its stoichiometry N is 2.

From paper PMC3792076, “Elucidation of Substrate Specificity in Aspergillus nidulans UDP-Galactose-4-Epimerase” (PLoS ONE, 2013)
